First the molecules themselves.
B7: H. sapiens CBP NCBD domain, Trp variant (H_sapiens_NCBD 2058-2116, Tyr2108 to Trp) (domain or fragment)
chain: GSPPRSISPSALQDLLRTLKSPSSPQQQQQVLNILKSNPQLMAAFIKQRTAKWVANQPGMQ
notes: Gly-Ser remains at the N-terminus after thrombin cleavage; Trp introduced at Tyr2108 for the kinetic studies; not shown: His6, N-terminal, cleaved; lipo domain, N-terminal, cleaved

For assay [1], the target named is S. purpuratus NCBD (nuclear coactivator binding domain of CBP), wild type (S. purpuratus). Briefly: ITC; MicroCal iTC200, 25 °C, 20 mM sodium phosphate pH 7.40, 150 mM NaCl. (In general: In ITC the heat of successive injections is recorded.)
Assay [2] has as its target C. milii CBP NCBD domain, Trp variant (C_milli_NCBD 2031-2089) (Callorhinchus milii). The assay can be described thus: stopped-flow spectroscopy; Trp variant of NCBD of the same species mixed with CID or N-CID-C; kon from the slope of kobs against CID concentration; koff from displacement of the complex by an excess of wild-type NCBD (average of three experiments); Kd = koff/kon; 20 mM sodium phosphate pH 7.40, 150 mM NaCl, 4 °C; double exponential fit for human and C. milii NCOA3, the high kobs used for Kd.

Assay [3] concerns the target T1, C. milii NCBD (nuclear coactivator binding domain of CBP), Trp variant, first four residues truncated (C. milii).
T1 chain: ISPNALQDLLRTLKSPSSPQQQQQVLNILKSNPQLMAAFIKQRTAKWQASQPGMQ

Assay [4] concerns the target T2, S. purpuratus NCOA N-CID-C (CID with N- and C-terminal flanking regions) (S. purpuratus, UniProt A0A7M7N2F3 1037-1156).
T2 construct: Gly-Ser remains at the N-terminus after thrombin cleavage; the Uniprot entry W4YZZ7 was withdrawn; annotated in NCBI as neurogenic protein mastermind; also called long version; source: expression construct ordered from Genscript; not shown: 6 His-tagged lipo domain, N-terminal, cleaved
T2 sequence: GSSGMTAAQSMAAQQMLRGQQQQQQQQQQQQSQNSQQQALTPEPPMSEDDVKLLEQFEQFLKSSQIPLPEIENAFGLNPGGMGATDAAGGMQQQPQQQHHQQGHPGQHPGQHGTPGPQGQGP
The assay can be described thus: ITC; MicroCal iTC200, 25 °C, 20 mM sodium phosphate pH 7.40, 150 mM NaCl. Particulars: both partners purified.

Assay [5] addresses T3, D. rerio NCBD (nuclear coactivator binding domain of CBP), Trp variant (D. rerio).
T3 chain: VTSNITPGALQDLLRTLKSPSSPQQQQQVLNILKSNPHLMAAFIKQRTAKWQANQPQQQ

Assay [6] has as its target D. rerio CBP NCBD domain, Trp variant (D_rerio_NCBD 2064-2122) (Danio rerio). The assay can be described thus: stopped-flow spectroscopy; Trp variant of NCBD of the same species mixed with CID or N-CID-C; kon from the slope of kobs against CID concentration; koff from displacement of the complex by an excess of wild-type NCBD (average of three experiments); Kd = koff/kon; 20 mM sodium phosphate pH 7.40, 150 mM NaCl, 4 °C; double exponential fit for human and C. milii NCOA3, the high kobs used for Kd.

The target of assay [7] is H. sapiens NCBD (nuclear coactivator binding domain of CBP), Trp variant (H. sapiens, UniProt Q92793 2058-2116, a Trp was introduced at the position corresponding to Tyr2108 in human NCBD).
For assay [8], the target named is T4, H. sapiens NCBD (nuclear coactivator binding domain of CBP), Trp variant (H. sapiens, UniProt Q92793 2058-2116, a Trp was introduced at the position corresponding to Tyr2108 in human NCBD).
T4 construct: Gly-Ser remains at the N-terminus after thrombin cleavage; also called human NCBD; Trp variant of NCBD; source: expression construct ordered from Genscript; not shown: 6 His-tagged lipo domain, N-terminal, cleaved
The assay can be described thus: stopped-flow spectroscopy; Trp variant of NCBD mixed with CID at varied concentration; kon from the slope of kobs, koff from displacement with excess wild-type NCBD, Kd = koff/kon; 20 mM sodium phosphate pH 7.40, 150 mM NaCl, 4 °C. Particulars: both partners purified.

For assay [9], the target named is B7. Briefly: stopped-flow spectroscopy; Trp variant of NCBD of the same species mixed with CID or N-CID-C; kon from the slope of kobs against CID concentration; koff from displacement of the complex by an excess of wild-type NCBD (average of three experiments); Kd = koff/kon; 20 mM sodium phosphate pH 7.40, 150 mM NaCl, 4 °C; double exponential fit for human and C. milii NCOA3, the high kobs used for Kd. Particulars: both partners purified.

Assay [10] addresses T5, H. sapiens NCOA1 N-CID-C (H_sapiens_NCOA1_N-CID-C_885-1004) (H. sapiens, UniProt Q15788 885-1004).
T5 construct: Gly-Ser remains at the N-terminus after thrombin cleavage; also called CID with flanking regions; Src1; not shown: His6, N-terminal, cleaved; lipo domain, N-terminal, cleaved
T5 sequence: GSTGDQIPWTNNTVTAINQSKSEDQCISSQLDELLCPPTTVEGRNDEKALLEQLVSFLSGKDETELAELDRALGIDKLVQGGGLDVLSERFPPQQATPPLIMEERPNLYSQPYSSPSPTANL
The description is as above. Particulars: both partners purified.

Consider “S. purpuratus NCOA CID (minimal region) (domain or fragment)”, for which the dissociation constant (Kd) – broadly, a measure of binding affinity in units of concentration – in assay [1] stood at 5 µM.

As to “C. milii NCOA3 N-CID-C (C_milli_NCOA3_N-CID-C_1037-1156) (domain or fragment)”, in assay [2], the Kd is 88 nM and the koff (commonly a measure of how fast the partners let go of each other) stood at 3.78 s⁻¹.

As for “C. milii NCOA3 CID (C_milli_NCOA3_CID_1076-1117) (domain or fragment)”, in [2], the dissociation constant (Kd) worked out at 260 nM and the koff was 6.53 s⁻¹.

In turn, EAQSDEKALLDQLDTLLSNADEMGLEEIDRALGIPDLISQVQ (domain or fragment) [C. milii NCOA3 CID (minimal region)] yielded an equilibrium dissociation constant (Kd) in assay [3] of 260 nM.

B1: S. purpuratus NCBD (nuclear coactivator binding domain of CBP), wild type (domain or fragment)
chain: GSQRNNAPQQALQQLLQTLKSPHSPQQQKQVLTILKSNPQLMAAFIKQRSEHQQRMQQQQQ
notes: Gly-Ser remains at the N-terminus after thrombin cleavage; CBP, S. purpuratus (purple sea urchin), NCBD domain, residues 2316-2374 of Uniprot A0A7M7HNR9; the Trp variant is told only for the stopped-flow experiments; source: expression construct ordered from Genscript; not shown: 6 His-tagged lipo domain, N-terminal, cleaved
Turning to B1, the affinity in assay [4], expressed as Kd, was 8 µM.

Consider GSEGQSDERALLDQLDSLLNNTDVIALEEIDRALGIPDLINQGH (domain or fragment) [D. rerio NCOA3 CID (minimal region)], for which the Kd in [5] is 300 nM. In assay [6], this molecule showed a Kd of 300 nM and a koff of 7.29 s⁻¹.

B2: C. milii NCOA3 N-CID-C (CID with N- and C-terminal flanking regions) (domain or fragment)
chain: QTTSWSDNVLQMEQVHSGGQGRQPFGGSLDDLLCPPTTAEAQSDEKALLDQLDTLLSNADEMGLEEIDRALGIPDLISQVQPLEAHADQFSVQDTALMLEQKAMYGQQFNSQAGPMQGCY
B2 showed a Kd in assay [3] of 88 nM.

In assay [5], GPGSASEGPADEGALLSQLYSALKDFDGLEEIDRALGIPALVGQAQ (domain or fragment) [D. rerio NCOA2 CID (minimal region)] yielded a Kd of 150 nM. In addition, in assay [6], the dissociation constant (Kd) was found to be 146 nM and the koff is 5.06 s⁻¹.

B3: H. sapiens NCOA1 N-CID-C (CID with N- and C-terminal flanking regions) (domain or fragment)
chain: GSTGDQIPWTNNTVTAINQSKSEDQCISSQLDELLCPPTTVEGRNDEKALLEQLVSFLSGKDETELAELDRALGIDKLVQGGGLDVLSERFPPQQATPPLIMEERPNLYSQPYSSPSPTANL
notes: Gly-Ser remains at the N-terminus after thrombin cleavage; also called NCOA1 (Src1); source: expression construct ordered from Genscript; not shown: 6 His-tagged lipo domain, N-terminal, cleaved
For B3, the Kd in assay [7] came to 6 nM. In [8], the “fold increase in affinity with flanking regions against the CID without them” value is 9 fold.

B4: D. rerio NCOA1 N-CID-C (CID with N- and C-terminal flanking regions) (domain or fragment)
chain: GSEPMTFDNSLANQTQAPLSSPQEQCVPCPLDEMLCPPTTPEGRNDEKALLEQLVTFLSHTDESELAELDRALGIDKIVQSGCLEPVTQTPFPQSQPPTPVPLDPKLPSYPSQFPTSPSQFP
With B4, in assay [5], the dissociation constant Kd stood at 15 nM. In assay [6], this molecule returned a Kd of 14.7 nM and a koff of 0.716 s⁻¹.

Turning to GSEGRNDEKALLEQLVTFLSHTDESELAELDRALGIDKIVQSGC (domain or fragment) [D. rerio NCOA1 CID (minimal region)], in [5], the dissociation constant (Kd) is 44 nM. Besides, in [6], the Kd stood at 44.1 nM and the koff came to 1.54 s⁻¹.

B5: H. sapiens NCOA1 CID (H_sapiens_NCOA1_CID_924-965) (domain or fragment)
chain: GSEGRNDEKALLEQLVSFLSGKDETELAELDRALGIDKLVQGGG
notes: Gly-Ser remains at the N-terminus after thrombin cleavage; also called Src1; not shown: His6, N-terminal, cleaved; lipo domain, N-terminal, cleaved
In assay [9], B5 registered a Kd of 55.7 nM and a koff of 1.59 ± 0.153 s⁻¹. In assay [7], binding was put at a Kd of 56 nM.

B6: D. rerio NCOA3 N-CID-C (CID with N- and C-terminal flanking regions) (domain or fragment)
chain: GSPPQSPSWPDSGMGMEGPPSANRLPINSPLDELLAPPSTSEGQSDERALLDQLDSLLNNTDVIALEEIDRALGIPDLINQGHSSDQPPPSDPFSGPCLGPDSSMGMEPPKAMYGQGYPGPP
B6 showed a Kd in assay [5] of 170 nM. In [6], this molecule gave a Kd of 168 nM and a koff of 5.34 s⁻¹.

In [10], B7 gave a Kd of 6.02 nM and a koff of 0.436 ± 0.0476 s⁻¹.

B8: D. rerio NCOA2 N-CID-C (CID with N- and C-terminal flanking regions) (domain or fragment)
chain: GPGSPPNQTAPWPDSVMPIEPVPFGNQSSSMYGGSQEDVLCPPASEGPADEGALLSQLYSALKDFDGLEEIDRALGIPALVGQAQPVEQDQFPGQDPSMMMDQKPPMYGQQQYASSPANMQQAG
On to B8, for which the Kd worked out at 82 nM in assay [5] and 81.9 nM in assay [6]. Besides, the koff in assay [6] was determined as 3.51 s⁻¹.

For the origin of these results see PMC10515491, “Intrinsically Disordered Flanking Regions Increase the Affinity of a Transcriptional Coactivator Interaction across Vertebrates” (Biochemistry, 2023).
